Laboratory results as given in publication doi:10.1101/2025.05.15.654345.

Target: human IFITM3 (untagged; interferon-induced transmembrane protein 3) (UniProt Q01628)
Assay: co-immunoprecipitation (anti-HA IP, anti-IFITM3 immunoblot, band ratio)
Conditions: HEK293T co-transfected with pCMV-IFITM3 (0.50 μg) and pBJ-97ZA Nef-HA WT or mutant (0.25 μg); parent: 100

Chain of UniProt Q01628 (Q01628 whole entry): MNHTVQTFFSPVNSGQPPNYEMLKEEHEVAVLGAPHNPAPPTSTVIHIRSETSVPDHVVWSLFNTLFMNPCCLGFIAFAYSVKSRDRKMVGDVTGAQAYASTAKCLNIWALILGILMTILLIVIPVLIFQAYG

“97ZA013 Nef-HA (HIV-1 clade C primary isolate), wild type R17A; R19A; R21A; R22A” showed a percent of parent (% (IFITM3/HA ratio, WT = 100)) of 16.

“97ZA013 Nef-HA (HIV-1 clade C primary isolate), wild type G2A” gave a percent of parent (% (IFITM3/HA ratio, WT = 100)) of 1.

Work on “97ZA013 Nef-HA (HIV-1 clade C primary isolate), wild type M20A” yielded a percent of parent (% (IFITM3/HA ratio, WT = 100)) of 124.

“97ZA013 Nef-HA (HIV-1 clade C primary isolate), wild type E153K” was tested, and the percent of parent (% (IFITM3/HA ratio, WT = 100)) was 73.

With “97ZA013 Nef-HA (HIV-1 clade C primary isolate), wild type S152D; E153K” the percent of parent (% (IFITM3/HA ratio, WT = 100)) was 42.

“97ZA013 Nef-HA (HIV-1 clade C primary isolate), wild type N163T; C164S” gave a percent of parent (% (IFITM3/HA ratio, WT = 100)) of 217.

With “97ZA013 Nef-HA (HIV-1 clade C primary isolate), wild type L164A; L165A” the percent of parent (% (IFITM3/HA ratio, WT = 100)) was 87.

“97ZA013 Nef-HA (HIV-1 clade C primary isolate), wild type M169V; Q171L” gave a percent of parent (% (IFITM3/HA ratio, WT = 100)) of 244.

Substance “97ZA013 Nef-HA (HIV-1 clade C primary isolate), wild type R192F; R193H” has a percent of parent (% (IFITM3/HA ratio, WT = 100)) of 188.
